# In article PMC8997907, “A Novel Role for Plasminogen Activator Inhibitor Type-2 as a Hypochlorite-Resistant Serine Protease Inhibitor and Holdase Chaperone” (Cells, 2022):
# B1: Hypochlorite-treated glycosylated PAI-2 (PAI-2^G pre-treated with NaOCl) (natural protein, human, UniProt P05120 1-415, looked up)
# chain: MEDLCVANTLFALNLFKHLAKASPTQNLFLSPWSISSTMAMVYMGSRGSTEDQMAKVLQFNEVGANAVTPMTPENFTSCGFMQQIQKGSYPDAILQAQAADKIHSSFRSLSSAINASTGNYLLESVNKLFGEKSASFREEYIRLCQKYYSSEPQAVDFLECAEEARKKINSWVKTQTKGKIPNLLPEGSVDGDTRMVLVNAVYFKGKWKTPFEKKLNGLYPFRVNSAQRTPVQMMYLREKLNIGYIEDLKAQILELPYAGDVSMFLLLPDEIADVSTGLELLESEITYDKLNKWTSKDKMAEDEVEVYIPQFKLEEHYELRSILRSMGMEDAFNKGRANFSGMSERNDLFLSEVFHQAMVDVNEEGTEAAAGTGGVMTGRTGHGGPQFVADHPFLFLIMHKITNCILFFGRFSSP
# modifications: glycosylated; hypochlorite-modified: dityrosine cross-linkages, reactive thiols (cysteines) reduced by 62 ± 27% at 200 µM NaOCl; positions not given
# notes: m1 after treatment with NaOCl; the dose differs between experiments (0-200 µM); also called hypochlorite-treated PAI-2^G; PAI-2^G OX200; source: bought: Biotech Australia (produced in CHO cells); incubated 2 h at 24 °C with up to 200 µM NaOCl, dialysed
# B2: Hypochlorite-treated non-glycosylated PAI-2 (PAI-2^NG pre-treated with NaOCl) (natural protein, human, UniProt P05120 1-415, looked up)
# chain: B1 chain
# modifications: hypochlorite-modified: dityrosine cross-linkages, reactive thiols (cysteines) reduced by 75 ± 18% at 200 µM NaOCl; positions not given
# notes: m2 after treatment with NaOCl; the dose differs between experiments (0-200 µM); also called hypochlorite-treated PAI-2^NG; PAI-2^NG OX200; source: bought: Biotech Australia (produced in E. coli); incubated 2 h at 24 °C with up to 200 µM NaOCl, dialysed
# Target: the molecule itself
# Assay: native gel or EMSA; samples at the end of ThT assays (Aβ1-42 3 µM with PAI-2 pre-treated with 0-200 µM NaOCl, PBS, 28 °C) centrifuged at 24,000 x g, supernatant on 8% native PAGE, Western blot with anti-Aβ (W0-2) or anti-PAI-2
row,Protein,binding result
1,B1,binds
2,B2,binds
